In paper PMC8060278 (Nature Communications, 2021) one finds Kd data, which are given here for 2 molecules.

What is called Kd is the constant that tells how readily two partners part at equilibrium.

Assay [1] deals with GPIbα LBD (Homo sapiens) (UniProt P07359). Particulars: cited from earlier work.
Assay [2] deals with T1, purified VWF (Homo sapiens, UniProt P04275).
T1 construct: von Willebrand factor
Description: ELISA; VWF coated on plates (6 μg/mL in PBS); VHH81 detected with HRP-conjugated anti-VHH antibody. The note with it: both partners purified. (In general: In an ELISA, binding on a coated surface is turned into a signal by an enzyme label.)

Assay [3] addresses T2, plasma-derived VWF (Homo sapiens, UniProt P04275).
T2 construct: von Willebrand factor from plasma (multimeric); In the flow-chamber functional row the VWF is that of human whole blood; also called plasma VWF; Humate-P; source: reconstituted in PBS from outdated lyophilized Humate-P (CSL-Behring)
The description is as above. Particulars: both partners purified.

Sequence of GPIbα LBD (Homo sapiens) (P07359 17-306): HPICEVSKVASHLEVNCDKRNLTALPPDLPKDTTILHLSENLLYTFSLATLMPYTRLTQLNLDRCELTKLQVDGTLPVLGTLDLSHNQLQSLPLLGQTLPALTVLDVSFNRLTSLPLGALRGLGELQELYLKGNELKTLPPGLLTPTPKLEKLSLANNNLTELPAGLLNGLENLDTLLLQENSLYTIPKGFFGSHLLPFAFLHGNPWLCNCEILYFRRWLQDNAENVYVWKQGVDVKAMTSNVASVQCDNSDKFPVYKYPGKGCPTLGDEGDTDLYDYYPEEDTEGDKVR

As to “von Willebrand factor AIM-A1 1238-1471 (from UniProt P04275)”, in assay [1], the Kd was 32000 nM.

B1: monomeric recombinant VHH81 (construct not stated for this experiment) (VHH)
VHH: EVQLVESGGGLVQPGGSLRLSCAASGRTFSYNPMGWFRQAPGKGRELVAAISRTGGSTYYPDSVEGRFTISRDNAKRMVYLQMNSLRAEDTAVYYCAAAGVRAEDGRVRTLPSEYTFWGQGTQVTVSS
notes: also called PMP12A2h1; source: produced in bacteria
Consider B1, for which the Kd in assay [2] and in assay [3] was ~20 nM throughout.
